Changes are numbered by the printed parent chain. In names and notes the source's numbering stands. Where two headings read alike, the source gives them in different places.
Key:
AUC [1] = biological target: the molecule itself; test: AUC
AUC [2] = biological target: the molecule itself; test: AUC; remark: listed apart in the source
Rim1 (mitochondrial SSB) [3] = biological target: T1, Rim1 (mitochondrial SSB) (Saccharomyces cerevisiae, UniProt P32445 17-135); test: Cy3 fluorescence titration
T1 sequence: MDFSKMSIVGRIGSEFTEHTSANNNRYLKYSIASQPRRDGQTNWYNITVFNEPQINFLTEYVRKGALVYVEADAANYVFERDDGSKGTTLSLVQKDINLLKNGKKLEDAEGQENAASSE

Rim1 (mitochondrial SSB) [4] = biological target: T1, Rim1 (mitochondrial SSB); test: FRET titration
Rim1 (mitochondrial SSB) [5] = biological target: T1, Rim1 (mitochondrial SSB); test: Cy3 fluorescence titration; remark: listed apart in the source
Rim1 (mitochondrial SSB) [6] = biological target: T1, Rim1 (mitochondrial SSB); test: FRET titration; remark: listed apart in the source
AUC [7] = biological target: the molecule itself; test: AUC; remark: listed apart in the source
Rim1 (mitochondrial SSB) [8] = biological target: T1, Rim1 (mitochondrial SSB); test: sedimentation equilibrium
Rim1 Y85H = biological target: T2, Rim1 Y85H (Saccharomyces cerevisiae, UniProt P32445 17-135, Y85H); test: sedimentation equilibrium
T2 sequence: T1 sequence with Y69H

Rim1 (mitochondrial SSB) [9] = biological target: T1, Rim1 (mitochondrial SSB); test: FRET titration; remark: listed apart in the source
Rim1 (mitochondrial SSB) [10] = biological target: T1, Rim1 (mitochondrial SSB); test: Cy3 fluorescence titration; remark: listed apart in the source
Rim1 (mitochondrial SSB) [11] = biological target: T1, Rim1 (mitochondrial SSB); test: Cy3 fluorescence titration; remark: listed apart in the source

B1: Rim1 harboring the mutation Y85H (amino acids 17-135) (natural protein, S. cerevisiae, UniProt P32445 17-135, looked up)
chain: T1 sequence with Y69H
Q: Which “stoichiometry N” value (AUC [1]) does the source give for B1 here?
A: 4

Q: What about the “stoichiometry N” value (AUC [2]) of the same binder?
A: 2

Q: Does TTTTTTTTTTTTTTTTTTTTT (ssDNA, internal Cy3 before last T) [dT20-Cy3-T] bind (Rim1 (mitochondrial SSB) [3])?
A: binds

Q: Does TTTTTTTTTTTTTTTTTTTTTTTTTTTTTTTTTTTTTTTTTTTTTT (ssDNA, internal Cy3 before last T) [Cy5.5-dT45-Cy3-T] bind (Rim1 (mitochondrial SSB) [4])?
A: binds

Q: Does TTTTTTTTTTTTTTTTTTTTTTTTTTTTTTTTTTTTTTT (ssDNA, internal Cy3 before last T) [dT38-Cy3-T] bind (Rim1 (mitochondrial SSB) [5])?
A: binds

Q: Does TTTTTTTTTTTTTTTTTTTTTTTTTTTTTTTTTTTTTTTTT (ssDNA, internal Cy3 before last T) [Cy5.5-dT40-Cy3-T] bind (Rim1 (mitochondrial SSB) [6])?
A: binds

B2: Human mitochondrial SSB, mitochondrial form (amino acids 17-148) (natural protein, UniProt Q04837 17-148, looked up)
chain: ESETTTSLVLERSLNRVHLLGRVGQDPVLRQVEGKNPVTIFSLATNEMWRSGDSEVYQLGDVSQKTTWHRISVFRPGLRDVAYQYVKKGSRIYLEGKIDYGEYMDKNNVRRQATTIIADNIIFLSDQTKEKE
Q: Does B2 bind (AUC [7])?
A: binds

Q: Does TTTTTTTTTTTTTTT (ssDNA) [Cy3-labeled dT15 (AUC)] bind (Rim1 (mitochondrial SSB) [8])?
A: binds

Q: Does TTTTTTTTTTTTTTT (ssDNA) [Cy3-labeled dT15 (AUC)] bind (Rim1 Y85H)?
A: binds

B3: Cy5-dT68-Cy3-T (ssDNA)
DNA: TTTTTTTTTTTTTTTTTTTTTTTTTTTTTTTTTTTTTTTTTTTTTTTTTTTTTTTTTTTTTTTTTTTTT
modifications: internal Cy3 before last T
Q: Does B3 bind (Rim1 (mitochondrial SSB) [9])?
A: binds

Q: Does TTTTTTTTTTTTTTTTTTTTTTTTTTTTT (ssDNA, internal Cy3 before last T) [dT28-Cy3-T] bind (Rim1 (mitochondrial SSB) [10])?
A: binds

Q: Does TTTTTTTTTTTTTTTT (ssDNA, internal Cy3 before last T) [dT15-Cy3-T] bind (Rim1 (mitochondrial SSB) [11])?
A: binds

Q: Does TTTTTTTTTTTTTTTTTTTT (ssDNA) [Cy3-labeled dT20 (AUC)] bind (Rim1 Y85H)?
A: binds

From paper PMC6101547 (Nucleic Acids Research, 2018)
